{
  "source": "the RNAGym collection of RNA variant scans (doi:10.1073/pnas.2313332121)",
  "parents": {"B1": {"name": "TPR 5TU (parent)", "chain": "GGAUCUUCUCGAUCUAACAAAAAAGACAAAUCUGCCACAAAGCUUGAGAGCAUCUUCGGAUGCAGAGGCGGCAGCCUUCGGUGGCGCGAUAGCGCCAACGUUCUCAACUAUGACACGCAAAACGCGUGCUCCGUUGAAUGGAGUUUAUCAUG"}},
  "note": "Variants at the floor of the assay were thinned out.",
  "data": [
    {"variants_of": "B1", "assay": "polymerase ribozyme fitness, log enrichment relative to wild type (log ratio); higher = more active; in vitro selection for triplet polymerase activity", "method_in_brief": "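Libraries of mutants in each subunit of a heterodimeric triplet polymerase ribozyme were generated by PCR and transcribed. In triplicate, each went through one in vitro selection round: annealing with biotinylated primer, partner subunit and triplets; frozen incubation at −7 °C; gel excision of extended constructs; streptavidin-bead capture; RT-PCR. Fitness, taken from Illumina sequencing of input and output libraries, is the logarithm of a genotype's enrichment over wild-type enrichment, averaged across replicates with inverse-variance weights. The logarithm is base 2, and genotypes needed ≥10 input reads and ≥1 read per output to be kept.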", "values": [
      {"variant": "G74A G141A", "polymerase ribozyme fitness (log ratio)": -2.42},
      {"variant": "A19G U55A C87A A106G G124C G136C C149A A150C", "polymerase ribozyme fitness (log ratio)": "≤ -4.2"},
      {"variant": "C10U A17C C38U G58C C96G", "polymerase ribozyme fitness (log ratio)": -3.69},
      {"variant": "C35G G74A U90A C95U", "polymerase ribozyme fitness (log ratio)": "≤ -4.2"},
      {"variant": "U31A A39G G94U", "polymerase ribozyme fitness (log ratio)": -2.07},
      {"variant": "A17U C38A U44A G70C U82C C95U", "polymerase ribozyme fitness (log ratio)": "≤ -4.2"},
      {"variant": "U6A C54A C93G", "polymerase ribozyme fitness (log ratio)": "≤ -4.2"},
      {"variant": "C57U G81C A106U", "polymerase ribozyme fitness (log ratio)": -1.74},
      {"variant": "A17U G81C U102G U130G G141A", "polymerase ribozyme fitness (log ratio)": "≤ -4.2"},
      {"variant": "U56A U78A A121C", "polymerase ribozyme fitness (log ratio)": "≤ -4.2"},
      {"variant": "G92U A121G G143C U145G", "polymerase ribozyme fitness (log ratio)": -3.44},
      {"variant": "C43U U61A G80A G94U A106C A122U", "polymerase ribozyme fitness (log ratio)": "≤ -4.2"},
      {"variant": "A21C C69A", "polymerase ribozyme fitness (log ratio)": -1.75},
      {"variant": "C14G A28U G50A A119C A147U", "polymerase ribozyme fitness (log ratio)": "≤ -4.2"},
      {"variant": "A73C", "polymerase ribozyme fitness (log ratio)": -2.13},
      {"variant": "A29G U56A U77C", "polymerase ribozyme fitness (log ratio)": "≤ -4.2"},
      {"variant": "A24C G58A", "polymerase ribozyme fitness (log ratio)": "≤ -4.2"},
      {"variant": "A39C A64G C75G C85U G124A", "polymerase ribozyme fitness (log ratio)": "≤ -4.2"},
      {"variant": "C32G G59C C96A U144A", "polymerase ribozyme fitness (log ratio)": "≤ -4.2"},
      {"variant": "A12C G25U C51G C72G C118G", "polymerase ribozyme fitness (log ratio)": "≤ -4.2"},
      {"variant": "C18U G81A C87U A97U", "polymerase ribozyme fitness (log ratio)": -1.14},
      {"variant": "C93U A122U", "polymerase ribozyme fitness (log ratio)": -0.696},
      {"variant": "G83C C132U A142U", "polymerase ribozyme fitness (log ratio)": "≤ -4.2"},
      {"variant": "U53A G86A A91C G128C", "polymerase ribozyme fitness (log ratio)": "≤ -4.2"},
      {"variant": "C5A A66G C96U A115G U139G G140A", "polymerase ribozyme fitness (log ratio)": "≤ -4.2"},
      {"variant": "C54A C116G", "polymerase ribozyme fitness (log ratio)": -0.685},
      {"variant": "C51A U55G C95U C105A G117U", "polymerase ribozyme fitness (log ratio)": "≤ -4.2"},
      {"variant": "C87U C118U U135G", "polymerase ribozyme fitness (log ratio)": "≤ -4.2"},
      {"variant": "C38U A47C C93A C125U", "polymerase ribozyme fitness (log ratio)": -3.16},
      {"variant": "A17G C108U", "polymerase ribozyme fitness (log ratio)": -3.09},
      {"variant": "A119U G140U", "polymerase ribozyme fitness (log ratio)": -3.25},
      {"variant": "G59C A60C C87G", "polymerase ribozyme fitness (log ratio)": "≤ -4.2"},
      {"variant": "C75G G92U", "polymerase ribozyme fitness (log ratio)": -2.52},
      {"variant": "G50U G84U", "polymerase ribozyme fitness (log ratio)": -1.81},
      {"variant": "A47C U53A C95U G136C", "polymerase ribozyme fitness (log ratio)": -3.62},
      {"variant": "A28U G88A G94A C99G C103G U104A A107G", "polymerase ribozyme fitness (log ratio)": "≤ -4.2"},
      {"variant": "A24C A49U C87A G92A G140U", "polymerase ribozyme fitness (log ratio)": "≤ -4.2"},
      {"variant": "A40U A64G C93A A98G A107C U130G", "polymerase ribozyme fitness (log ratio)": "≤ -4.2"},
      {"variant": "U15G A40C G42A A49G G62C C93A", "polymerase ribozyme fitness (log ratio)": "≤ -4.2"},
      {"variant": "C54U U135A G136C", "polymerase ribozyme fitness (log ratio)": -3.76},
      {"variant": "A19U C114G", "polymerase ribozyme fitness (log ratio)": -3.52},
      {"variant": "U101C", "polymerase ribozyme fitness (log ratio)": 0.385},
      {"variant": "C35U A49C G59A C96A U148G A150C", "polymerase ribozyme fitness (log ratio)": "≤ -4.2"},
      {"variant": "C75U G81A C85A C95G A98U", "polymerase ribozyme fitness (log ratio)": -3.71},
      {"variant": "A16C C95U", "polymerase ribozyme fitness (log ratio)": -0.661},
      {"variant": "U56G U102C", "polymerase ribozyme fitness (log ratio)": -1.91},
      {"variant": "C8G A41U A49C G62A C79U C85U C96U C114G A115G", "polymerase ribozyme fitness (log ratio)": "≤ -4.2"},
      {"variant": "A30G G74U C93A U102C U127G C129G U144G", "polymerase ribozyme fitness (log ratio)": "≤ -4.2"},
      {"variant": "G42C A89G G92A G126U G133A", "polymerase ribozyme fitness (log ratio)": "≤ -4.2"},
      {"variant": "G65A G84U", "polymerase ribozyme fitness (log ratio)": -2.89},
      {"variant": "A3C A12U G58C C118U", "polymerase ribozyme fitness (log ratio)": -1.52},
      {"variant": "G25C G86A G94U", "polymerase ribozyme fitness (log ratio)": -3.91},
      {"variant": "U53A C76G G92A A107C G124U C149A", "polymerase ribozyme fitness (log ratio)": "≤ -4.2"},
      {"variant": "A30G C75G C93U A121G", "polymerase ribozyme fitness (log ratio)": "≤ -4.2"},
      {"variant": "G11A G48A A52C G83A C87U A119C G124C", "polymerase ribozyme fitness (log ratio)": "≤ -4.2"},
      {"variant": "C54A U55A", "polymerase ribozyme fitness (log ratio)": -1.91},
      {"variant": "C35U C87U A107G G126A G136U G140U", "polymerase ribozyme fitness (log ratio)": "≤ -4.2"},
      {"variant": "U13A A39U U45A G59C C72U G94C U101A A142C", "polymerase ribozyme fitness (log ratio)": "≤ -4.2"},
      {"variant": "A24U U45A", "polymerase ribozyme fitness (log ratio)": -3},
      {"variant": "A26U U33G G92A C95U U134G", "polymerase ribozyme fitness (log ratio)": "≤ -4.2"},
      {"variant": "A24U C93U C118U A121G", "polymerase ribozyme fitness (log ratio)": -1.37},
      {"variant": "C54G G92A C132A", "polymerase ribozyme fitness (log ratio)": "≤ -4.2"},
      {"variant": "A66G U78G U90C U135G", "polymerase ribozyme fitness (log ratio)": "≤ -4.2"},
      {"variant": "A47C G124U", "polymerase ribozyme fitness (log ratio)": -1.09},
      {"variant": "A26U U31A G86U A147C", "polymerase ribozyme fitness (log ratio)": "≤ -4.2"},
      {"variant": "A22U A39U U44G C51A G141C U146C A150G", "polymerase ribozyme fitness (log ratio)": "≤ -4.2"},
      {"variant": "A40U A47C C51U U82C C118G", "polymerase ribozyme fitness (log ratio)": -2.44},
      {"variant": "C14G A26G U56G A73U G143A", "polymerase ribozyme fitness (log ratio)": "≤ -4.2"},
      {"variant": "C35U G84U A89U A97G G143A", "polymerase ribozyme fitness (log ratio)": -2.66},
      {"variant": "A17C U31A G92U A98U G141A", "polymerase ribozyme fitness (log ratio)": 0.253},
      {"variant": "C57A G83C C87U U134G U139A U144G", "polymerase ribozyme fitness (log ratio)": "≤ -4.2"},
      {"variant": "A30U C87U", "polymerase ribozyme fitness (log ratio)": -3.22},
      {"variant": "G42A G86A", "polymerase ribozyme fitness (log ratio)": -3.97},
      {"variant": "C5A C14G A19G C36A U102G C132G", "polymerase ribozyme fitness (log ratio)": "≤ -4.2"},
      {"variant": "C85U C99U", "polymerase ribozyme fitness (log ratio)": -2.35},
      {"variant": "U31A A97U", "polymerase ribozyme fitness (log ratio)": -0.316},
      {"variant": "G42A G50A C57U G67C C79U G83U C93U", "polymerase ribozyme fitness (log ratio)": "≤ -4.2"},
      {"variant": "C32U G46U C103G U104G A107C G140C", "polymerase ribozyme fitness (log ratio)": "≤ -4.2"},
      {"variant": "G48C G62C C108G A137U U146A", "polymerase ribozyme fitness (log ratio)": "≤ -4.2"},
      {"variant": "A40C U55G C85U", "polymerase ribozyme fitness (log ratio)": 0.238},
      {"variant": "A29C A47U C76G C79A A97U C99A C125G U134A U144G", "polymerase ribozyme fitness (log ratio)": "≤ -4.2"},
      {"variant": "C5A C35A U55A A91G G100U G126A A147G", "polymerase ribozyme fitness (log ratio)": "≤ -4.2"},
      {"variant": "A20C U53A G84A", "polymerase ribozyme fitness (log ratio)": -1.69}
    ]}
  ]
}
